Assay results from US20260210939A1, “MODIFIED OLFACTORY RECEPTORS” (GIVAUDAN SA, priority 2022, published 2026).
Like-named read-outs stand apart in the source and are kept apart here.

Legend:
OR52A5 = biological target: T1, OR52A5 (Homo sapiens, UniProt Q9H2C5); format: cell-based
T1 construct: Improved functional expression of modified OR-genes containing the truncated, optimized C-terminus; expressed in transfected cells; host or cells: HEK293T stably expressing human RTP1S(V227I) and RTP2(L220R)
T1 sequence (Q9H2C5 with tags, fused parts or gaps): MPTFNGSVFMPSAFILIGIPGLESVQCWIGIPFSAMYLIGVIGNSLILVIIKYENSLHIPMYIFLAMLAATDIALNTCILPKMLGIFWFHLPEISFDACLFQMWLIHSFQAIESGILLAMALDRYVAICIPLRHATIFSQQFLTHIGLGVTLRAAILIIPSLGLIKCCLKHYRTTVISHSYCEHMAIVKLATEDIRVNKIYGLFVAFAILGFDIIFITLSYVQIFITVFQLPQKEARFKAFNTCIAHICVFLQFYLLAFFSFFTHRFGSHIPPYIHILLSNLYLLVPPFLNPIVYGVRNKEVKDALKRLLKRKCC
Procedure: Further variants of the improved C-terminal domain sequence […] (SEQ ID NO: 86) and falling within the general sequence RN[KR][EDQ][VMIL][KR]xA[LIV][KRH][KR][LI][LIF][KRG][KR][KR] (SEQ ID NO: 1) with further amino acids at the C-terminal end (CC) were tested on the class I receptor OR52A5 activated by 4-ethyloctanoic acid. […] This activation is further improved by either replacing amino acid position 4-6 with the sequence QIR or by adding the terminal sequence RRR.

OR5A2 = biological target: T2, OR5A2 (Homo sapiens, UniProt Q8NGI9); experiment: CRE-luciferase assay, HEK293T cells expressing OR5A2 (wild-type / modified C-terminus); format: cell-based; settings: for fold-induction of luciferase: OR5A2 variant
T2 construct: Improved functional expression of modified OR-genes containing the truncated, optimized C-terminus; expressed in transfected cells; host or cells: HEK293T with stably integrated human RTP1S(V227I) and RTP2(L220R)
T2 sequence (Q8NGI9 with tags, fused parts or gaps): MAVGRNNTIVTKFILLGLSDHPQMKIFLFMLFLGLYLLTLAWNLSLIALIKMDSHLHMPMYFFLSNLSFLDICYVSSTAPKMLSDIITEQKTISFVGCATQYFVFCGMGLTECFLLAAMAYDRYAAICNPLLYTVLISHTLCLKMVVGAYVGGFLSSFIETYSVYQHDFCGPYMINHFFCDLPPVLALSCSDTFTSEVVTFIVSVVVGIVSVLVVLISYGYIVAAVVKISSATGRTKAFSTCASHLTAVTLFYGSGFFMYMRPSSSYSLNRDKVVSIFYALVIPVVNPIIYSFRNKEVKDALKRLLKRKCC

OR5B12 = biological target: T3, OR5B12 (Homo sapiens, UniProt Q96R08, C141R); experiment: CRE-luciferase assay, HEK293T cells expressing OR5B12 (wild-type / modified C-terminus); format: cell-based; settings: OR5B12 variant
T3 construct: Improved functional expression of modified OR-genes containing the truncated, optimized C-terminus; expressed in transfected cells; host or cells: HEK293T stably expressing human RTP1S(V227I) and RTP2(L220R)
T3 sequence (Q96R08 with tags, fused parts or gaps C141R): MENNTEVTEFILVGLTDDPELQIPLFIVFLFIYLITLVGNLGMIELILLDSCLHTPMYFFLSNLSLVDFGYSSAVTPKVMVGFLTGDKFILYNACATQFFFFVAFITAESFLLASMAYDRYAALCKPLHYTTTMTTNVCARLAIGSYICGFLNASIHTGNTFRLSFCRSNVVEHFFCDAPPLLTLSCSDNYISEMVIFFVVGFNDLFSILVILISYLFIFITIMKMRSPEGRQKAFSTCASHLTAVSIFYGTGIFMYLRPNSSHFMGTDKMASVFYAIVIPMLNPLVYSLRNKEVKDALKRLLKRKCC

OR2T4 = biological target: T4, OR2T4 (Homo sapiens, UniProt Q8NH00, D328E/G331D/M330K); settings: OR2T4 variant
T4 sequence (Q8NH00 with tags, fused parts or gaps D328E/M330K/G331D): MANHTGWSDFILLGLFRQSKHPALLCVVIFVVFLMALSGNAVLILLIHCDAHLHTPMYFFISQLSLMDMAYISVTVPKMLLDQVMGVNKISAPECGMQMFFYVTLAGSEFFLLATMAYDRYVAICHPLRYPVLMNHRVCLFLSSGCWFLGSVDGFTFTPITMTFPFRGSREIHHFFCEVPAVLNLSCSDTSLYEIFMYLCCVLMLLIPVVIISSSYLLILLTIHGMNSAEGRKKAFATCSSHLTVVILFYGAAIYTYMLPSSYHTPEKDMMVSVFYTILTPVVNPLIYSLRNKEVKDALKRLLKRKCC

OR7C1 = biological target: T5, OR7C1 (Homo sapiens, UniProt O76099, D296E/G302K/M297V/R299D/T295K/V126I); experiment: CRE-luciferase assay, HEK293T cells expressing OR7C1 (wild-type / modified C-terminus); format: cell-based; settings: OR7C1 variant, 1 μM Ambermax
T5 construct: Improved functional expression of modified OR-genes containing the truncated, optimized C-terminus; expressed in transfected cells; host or cells: HEK293T stably expressing human RTP1S(V227I) and RTP2(L220R)
T5 sequence (O76099 with tags, fused parts or gaps V126I/T295K/D296E/M297V/R299D/G302K): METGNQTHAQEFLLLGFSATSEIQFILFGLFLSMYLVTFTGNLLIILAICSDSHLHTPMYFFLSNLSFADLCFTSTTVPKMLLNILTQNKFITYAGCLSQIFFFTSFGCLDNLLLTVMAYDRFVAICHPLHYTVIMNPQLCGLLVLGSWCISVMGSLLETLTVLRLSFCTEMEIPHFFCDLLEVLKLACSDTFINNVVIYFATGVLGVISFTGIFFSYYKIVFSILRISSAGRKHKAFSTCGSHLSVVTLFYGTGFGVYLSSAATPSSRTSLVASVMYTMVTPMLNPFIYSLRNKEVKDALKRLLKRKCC
Excerpt: To test for possible variants of the sequence […]CC (SEQ ID NO: 86) leading to similar improved functional expression, different point mutations were introduced into the first 16 amino acids of this sequence (corresponding to […], SEQ ID NO: 10) and the variants were fused after the TM7 with OR7C1. […] The test concentrations were selected to fall into the range of partial activity of the wild-type sequence.

[1] = 4 μM 2-methyl-3-tetrahydrofuranethiol
[2] = 8 μM 2-methyl-3-tetrahydrofuranethiol

Row | Compound | % of the activation by the optimized sequence RNKEVKDALKRLLKRKCC (OR5B12; 31 μM Hedione HC) [%] | % of the activation by the optimized sequence RNKEVKDALKRLLKRKCC (OR5B12; 62.5 μM Hedione HC) [%] | % of the activation by the optimized sequence RNKEVKDALKRLLKRKCC (OR2T4; [1]) [%] | % of the activation by the optimized sequence RNKEVKDALKRLLKRKCC (OR2T4; [2]) [%] | % of the activation by the optimized sequence RNKEVKDALKRLLKRKCC (OR7C1) [%] | also measured
1 | CCCCC(CC)CCC(=O)O (stereo not drawn) [4-ethyloctanoic acid, reference compound] | – | – | – | – | – | Comments on efficacy (OR52A5): 2.5-fold lower; Fold-improvement threshold (OR52A5; changed C-term. vs wild-type): >10
2 | CC1COCc2cc3c(cc21)C(C)(C)C(C)C3(C)C (stereo not drawn) [Galaxolide, reference compound] | – | – | – | – | – | Comments on efficacy (OR5A2): No induction; Detection threshold; concentration for 2-fold induction (OR5A2; changed C-term. SEQ ID NO: 86): 0.0016 µM; Fold-improvement potency (OR5A2; changed C-term. vs wild-type): >300; Fold-improvement threshold (OR5A2; changed C-term. vs wild-type): >20000; concentration at which activation occurs (OR5A2; modified OR5A2, SEQ ID NO: 86): < 0.01 µM; Detection threshold; concentration for 2-fold induction (OR5A2; wild-type): (>>31) μM
3 | CCOc1cc(C=O)ccc1O [ethyl vanillin, reference compound] | – | – | – | – | – | response of the modified receptor (OR5A2; modified OR5A2, SEQ ID NO: 86): no response
4 | SEQ ID NO: 116 (RNKEVKRAIKRLFKRKCC; source 1..18: note = C-terminal domain sequence) | 433.2 | 303.9 | 63.3 | 77.0 | 393.9 | –
5 | SEQ ID NO: 117 (RNKEVKKAIKRLFKRKCC; source 1..18: note = C-terminal domain sequence) | 435.4 | 282.5 | 96.2 | 88.2 | 310.7 | fold-induction of luciferase (OR5A2; muscone 0.01 μM): 0.96; fold-induction of luciferase (OR5A2; muscone 0.03 μM): 1.39; fold-induction of luciferase (OR5A2; muscone 0.10 μM): 3.49; fold-induction of luciferase (OR5A2; muscone 0.32 μM): 9.33; fold-induction of luciferase (OR5A2; muscone 1.00 μM): 19.44; fold-induction of luciferase (OR5A2; muscone 3.16 μM): 27.31; fold-induction of luciferase (OR5A2; muscone 10.00 μM): 30.34
6 | SEQ ID NO: 118 (RNKEVKRAIRKLLKRKCC; source 1..18: note = C-terminal domain sequence) | 126.2 | 136.1 | 80.6 | 98.4 | 288.9 | –
7 | SEQ ID NO: 121 (RNKEVKRAIKRLLKRKCR; source 1..18: note = C-terminal domain sequence) | 342.8 | 242.1 | 139.9 | 150.6 | 346.4 | –
8 | SEQ ID NO: 122 (RNKEVKKAIKRLLKRKCR; source 1..18: note = C-terminal domain sequence) | 331.3 | 222.3 | 97.3 | 102.0 | 258.8 | –
9 | SEQ ID NO: 149 (RNKEVKDALKRLLKRKCRRR; source 1..20: note = C-terminal domain sequence) | 254.8 | 231.7 | 108.0 | 135.7 | 265.3 | –
10 | SEQ ID NO: 150 (RNKEVKDALKRLLKRKCRKK; source 1..20: note = C-terminal domain sequence) | 182.3 | 145.7 | 94.8 | 96.5 | 196.0 | –
11 | SEQ ID NO: 156 (RNKEVKDALKRLLKRKCCRRR; source 1..21: note = C-terminal domain sequence) | 250.7 | 233.4 | – | – | – | fold induction of luciferase by 4-ethyloctanoic acid (OR52A5; 1 µM): 9.39; fold induction of luciferase by 4-ethyloctanoic acid (OR52A5; 10 µM): 14.90; fold induction of luciferase by 4-ethyloctanoic acid (OR52A5; 31 µM): 22.00
12 | SEQ ID NO: 198 (RNKEVKDALKRLLKRKC; source 1..17: note = C-terminal domain sequence) | 0 | 0 | – | – | 137.7 | % of the activation by the optimized sequence RNKEVKDALKRLLKRKCC (OR2T4; 10 μM Cyclopentanethiol, 30 μM copper): 37.7%; % of the activation by the optimized sequence RNKEVKDALKRLLKRKCC (OR2T4; 31 μM Cyclopentanethiol, 30 μM copper): 63.5%
13 | SEQ ID NO: 221 (RNKEVKKAIKRLFKRKCCRRR; source 1..21: note = C-terminal domain sequence) | 1032.2 | 676.0 | 103.1 | 130.4 | 498.6 | –
14 | SEQ ID NO: 740 (RNKQIRDALKRLLKRKCC; source 1..18: note = C-terminal domain sequence) | – | – | – | – | – | fold induction of luciferase by 4-ethyloctanoic acid (OR52A5; 1 µM): 10.09; fold induction of luciferase by 4-ethyloctanoic acid (OR52A5; 10 µM): 12.30; fold induction of luciferase by 4-ethyloctanoic acid (OR52A5; 31 µM): 19.31
